Results as given in patent publication US6521740 (IMMUNEX, dated 2003).

How the values were obtained:
[1] = target: T1, recombinant human IL-1α (human, UniProt P01583 113-271, limits assumed); experiment: Inhibition binding assay; soluble receptor against IL-1α binding to CB23 cells; same procedure
T1 construct: also called Interleukin-1α
T1 sequence (looked up): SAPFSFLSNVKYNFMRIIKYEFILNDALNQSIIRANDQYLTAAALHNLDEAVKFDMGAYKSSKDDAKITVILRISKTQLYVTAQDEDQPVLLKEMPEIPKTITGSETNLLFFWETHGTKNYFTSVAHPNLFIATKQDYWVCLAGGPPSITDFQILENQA

[2] = target: T2, recombinant human IL-1β (human, UniProt P01584 117-269); experiment: Inhibition binding assay; soluble receptor (COS-7 supernatant, serially diluted) against 125I-IL-1β binding to CB23 cells; phthalate oil separation
T2 construct: The 17.5 kD size is consistent with the mature form; also called rIL-1β
Procedure: The binding inhibition constant of the soluble human type II IL-1R, expressed and purified as described in Example 2 above, is determined by a inhibition binding assay in which varying concentrations of an IL-1β competitor is incubated with a constant amount of radiolabeled I-IL-1β and CB23 cells (an Epstein Barr virus transformed cord blood B lymphocyte cell line) expressing the type II IL-1R. Binding assays were also performed by a phtahlate oil separation method essentially as describe by Dower et al., *J. Immunol.* 132:751, 1984 and Park et al., *J. Biol. Chem.* 261:4177, 1986. Briefly, COS-7 cells were transfected with the expression vector pDC406 containing a cDNA encoding the soluble human type II IL-1R described above. Supernatants from the COS cells were harvested 3 days after transfection and serially diluted in binding medium (Roswell Park Memorial Institute (RPMI) 1640 medium containing 2% BSA, 20 mM Hepes buffer, and 0.2% sodium azide, pH 7.2) in […] to a volume of 50 μl/well. […] Duplicate 60 μl aliquots of the incubation mixture were then transferred to polyethylene centrifuge tubes containing a phthalate oil mixture comprising 1.5 parts dibutylphthalate, to 1 part bis(s-ethylhexyl)phthalate. […] The radioactivity of the cells was then determined on a gamma counter.

B1: soluble human type II IL-1R (amino acids -13-333 of SEQ ID NO:1) (receptor)
chain: FTLQPAAHTGAARSCRFRGRHYKREFRLEGEPVALRCPQVPYWLWASVSPRINLTWHKNDSARTVPGEEETRMWAQDGALWLLPALQEDSGTYVCTTRNASYCDKMSIELRVFENTDAFLPFISYPQILTLSTSGVLVCPDLSEFTRDKTDVKIQWYKDSLLLDKDNEKFLSVRGTTHLLVHDVALEDAGYYRCVLTFAHEGQQYNITRSIELRIKKKKEETIPVIISPLKTISASLGSRLTIPCKVFLGTGTPLTTMLWWTANDTHIESAYPGGRVTEGPRQEYSENNENYIEVPLIFDPVTREDLHMDFKCVVHNTLSFQTLRTTVKEASS
notes: It includes 3 amino acids of the predicted transmembrane region (331-356)
- KI (binding inhibition constant, given as an association constant) [1]: 1.4e+08 M⁻¹
- KI (binding inhibition constant, given as an association constant) [2]: ~3.5e+09 M⁻¹
